This is an account of results in US20090281024A1 (RAPTOR PHARMACEUTICALS, published 2009).

Experiment [1] has as its target T1, MegaRAP1 d3 (human, UniProt P30533 235-353).
T1 construct: range 201-319 (mature RAP numbering); d3 of the variant selected on LRP2 CR89; also called RAPv2A d3; RAP v2A; not shown: N-terminal hexahistidine and S-peptide tags of pET30(+)a
T1 sequence (looked up): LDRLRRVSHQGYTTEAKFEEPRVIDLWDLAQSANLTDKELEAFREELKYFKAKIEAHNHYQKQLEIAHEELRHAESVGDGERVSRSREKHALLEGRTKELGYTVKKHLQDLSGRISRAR
Kind of experiment: solid-phase assay, coated CR protein (same value as Table 1).

The target in experiment [2] is T1, MegaRAP1 d3. Kind of experiment: solid-phase assay, coated CR protein. The method, then:
(§1) Wells were washed with TBSTC and bound ligands detected with polyclonal anti-RAP (BP41/42, 1:1,000, BioMarin). Excess primary antibody was removed and wells washed before incubation with the secondary antibody, HRP-conjugated goat anti rabbit IgG (Bio-Rad). After washing, TMB substrate solutions (Bio-Rad) were added to detect HRP. Color development was stopped with 1N HCl. Absorption at 450 nm was measured with a microplate spectrophotometer (Molecular Devices). Data were plotted and Kd values derived by non-linear regression with the assumption of single-site binding (GraphPad Prism).
(§2) Next, the binding of RAP d3 and MegaRAP1 d3 proteins to LRP1 CR3-5 and LRP2 CR89 was assessed. […] In all cases, 10 mM EGTA prevented binding of both RAP d3 and MegaRAP1 d3 to CR proteins. Since calcium was the only divalent metal ion present in the binding buffer, this observation is consistent with both RAP d3 and MegaRAP1 d3 binding to calcium-loaded CR pairs. […] Therefore, wild-type RAP d3 and MegaRAP1 d3 have inverted binding preferences for these two receptor fragments.

In experiment [3] the target is T2, RAP d3 E251K, K256A, K270E (human, UniProt P30533 235-353).
T2 construct: range 201-319 (mature RAP numbering); Forward mutant of m1; same construct; also called RAP E251K, K256A, K270E; not shown: N-terminal hexahistidine and S-peptide tags of pET30(+)a
T2 sequence (looked up): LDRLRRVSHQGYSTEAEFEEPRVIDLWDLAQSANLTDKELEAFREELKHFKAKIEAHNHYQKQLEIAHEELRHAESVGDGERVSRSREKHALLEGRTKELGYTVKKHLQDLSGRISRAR
Kind of experiment: solid-phase assay, coated CR protein. The procedure:
as §1, §2

Another experiment has as its target T3, RAP d3 E251K (human, UniProt P30533 235-353).
T3 construct: range 201-319 (mature RAP numbering); Forward mutant of m1; same construct; also called RAP E251K; not shown: N-terminal hexahistidine and S-peptide tags of pET30(+)a
T3 sequence (looked up): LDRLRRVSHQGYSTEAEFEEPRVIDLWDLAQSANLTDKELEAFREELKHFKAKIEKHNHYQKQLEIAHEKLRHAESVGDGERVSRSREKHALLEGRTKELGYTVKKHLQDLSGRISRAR
Kind of experiment: solid-phase binding assay: LRP2 CR89 coated on the plate, d3 ligand in solution, anti-RAP detection, absorbance. The procedure:
(§3) Solid phase binding assays—Purified, refolded CR protein (1 μg) was bound to Nunc Maxisorp™ 96-well plates in TBS pH 8 supplemented with 5 mM CaCl₂ (TBSC) overnight at 4° C. Wells were washed with TBSC and then blocked with TBSC containing 2% bovine serum albumin (BSA). RAP ligands were then incubated with the immobilized receptor at a range of concentrations for 2 hours in the above blocking buffer supplemented with 0.05% Tween-20 at room temperature. Control wells contained no added ligand. As an additional control, to determine whether the absence of calcium affected binding, 10 mM EGTA was included in the incubation medium for some samples. Wells were washed with TBSTC and bound ligands detected with polyclonal anti-RAP (BP41/42, 1:1,000, BioMarin). Excess primary antibody was removed and wells washed before incubation with the secondary antibody, HRP-conjugated goat anti rabbit IgG (Bio-Rad). After washing, TMB substrate solutions (Bio-Rad) were added to detect HRP. Color development was stopped with 1N HCl. Absorption at 450 nm was measured with a microplate spectrophotometer (Molecular Devices). Data were plotted and Kd values derived by non-linear regression with the assumption of single-site binding (GraphPad Prism).
as §2

The target of a further experiment is T4, RAP d3 K256A, K270E (human, UniProt P30533 235-353).
T4 construct: range 201-319 (mature RAP numbering); Forward mutant of m1; same construct; also called RAP K256A, K270E; not shown: N-terminal hexahistidine and S-peptide tags of pET30(+)a
T4 sequence (looked up): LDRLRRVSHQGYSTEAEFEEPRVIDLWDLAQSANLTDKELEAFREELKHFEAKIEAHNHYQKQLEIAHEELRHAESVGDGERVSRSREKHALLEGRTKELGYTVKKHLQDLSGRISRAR
The experiment is described as above. The method, then: as §3, §2

Another experiment has as its target T5, RAP d3 K270E (human, UniProt P30533 235-353).
T5 construct: range 201-319 (mature RAP numbering); Forward mutant of m1; same construct; also called RAP K270E; not shown: N-terminal hexahistidine and S-peptide tags of pET30(+)a
T5 sequence (looked up): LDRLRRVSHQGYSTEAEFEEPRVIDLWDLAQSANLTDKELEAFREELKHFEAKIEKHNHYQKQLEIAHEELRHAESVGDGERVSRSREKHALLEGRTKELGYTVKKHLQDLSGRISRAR
The experiment is described as above. The procedure: as §3, §2

The next experiment concerns the target T6, RAP d3 E217K (human, UniProt P30533 235-353).
T6 construct: range 201-319 (mature RAP numbering); Forward mutant of m1; same construct; also called RAP E217K; not shown: N-terminal hexahistidine and S-peptide tags of pET30(+)a
T6 sequence (looked up): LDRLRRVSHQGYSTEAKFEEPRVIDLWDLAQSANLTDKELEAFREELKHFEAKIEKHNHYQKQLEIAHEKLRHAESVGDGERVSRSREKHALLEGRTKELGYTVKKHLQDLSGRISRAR
The description is as above. The procedure:
as §3, §2

B1: LRP2 CR89 (receptor)
chain: not shown
notes: domain: CR89; Limits of the fragment are set only by the primers LRP2CR8F and LRP2CR9R; also called YVWR; L2 CR89; not shown: N-terminal hexahistidine and S-peptide tags of pET30(+)a
On to B1, for which the Kd (commonly the constant that tells how readily two partners part at equilibrium) in the experiment with MegaRAP1 d3 [1] turned out to be 38 nM; in the experiment with MegaRAP1 d3 [2], 38 nM; in experiment [3], 114 nM. Further, the binding result was “no binding (tested: 100 nM)” with RAP d3 E251K; “no binding (tested: 100 nM)” with RAP d3 K256A, K270E; “no binding (tested: 100 nM)” with RAP d3 K270E; “no binding (tested: 100 nM)” in the experiment with RAP d3 E217K.
